Where no end group is shown, it is not given here.
How the values were obtained:
αvβ3 integrin = αvβ3 integrin (Homo sapiens, UniProt P05106+P06756); test: Solid phase ligand binding assay (ELISA)
Method: (§1) FIG. 10A: Affinity purified GST-fusion proteins were resolved on SDS±PAGE and stained with Coomassie Blue. FIG. 10B: Integrins were immobilized onto 96-well plates, and various GST-fusion proteins (ligands) were allowed to bind. Bound ligands were incubated with anti-GST antibodies, appropriate substrate added and the color intensity measured. OD values <0.05 were considered to be background binding. Data are expressed as mean±SD (n=4). FIG. 10C: Dose-dependent binding of αvβ3 integrin with recombinant GST-VCIP-RGD. FIGS. 10D-F: Representative photomicrographs of adhesion and spreading of endothelial cells replated onto dishes coated with either […]. Cells were allowed to attach for 45 min, washed with PBS and stained with H&E. Magnification, 100×. Bar, 25 μm. FIG. 10G: Adhesion blocking assays. Endothelial cells were replated onto dishes coated with increasing concentrations of affinity purified fusion proteins (1, 5 and 10 nM). Attached cells were stained, washed and absorbances of eluted dyes measured. To determine the effects of anti-integrin antibodies, dishes were coated with 10 nM GST-VCIP-RGD. Endothelial cells were pre-incubated at 4° C. with increasing concentrations of anti-α5β1 (P1D6), anti-αvβ3 (LM609), anti-α2β1 (MAB 1998) and anti-α3β1 (P1B5) monoclonal antibodies (1, 5 and 10 μg/ml) for 30 min, then washed and replated onto coated dishes. Attached cells were stained, washed and absorbances of eluted dyes determined. Three independent experiments were performed with several replicate samples in each experiment. Data are expressed as mean±S.D.; diamond, P<0.01; asterisk, P<0.001. FIG. 10H: Clarified extracts prepared from [^35S]Cys/Met-labeled HdMVEC were pre-adsorbed and incubated with GST-VCIP-RGD in the absence (−) or presence (+) of GRGDSP peptide (lanes 1 and 2). The presence of αvβ3 and α5β1 integrins (lanes 5 and 6) in GST-VCIP pull-down complex (lane 1) was confirmed by incubating aliquots of dissociated complex with the indicated antibodies. Anti-mouse IgG was included as negative control (lane 3).
(§2) Solid phase ligand binding assays were performed according to a previously published procedure (Orlando and Cheresh, 1991). Briefly, soluble α2β1, α5β1, αvβv3 and αvβ5 integrins (1 μg/ml in a solution containing 20 mM Tris pH 7.4, 150 mM NaCl, 1 mM CaCl2, 1 mM MgCl2 and 1 mM MnCl2) were immobilized onto 96-well microtiter plates at 4° C. Wells were washed and blocked with 0.5% BSA. After washing, GST, GST-VCIP-RGD and GST-VCIP-RGE ligands were added (50-350 ng per well in a solution of TBS pH 7.4) and incubated at 37° C. for 1 h. After washing, the wells were incubated with the anti-GST (sc-138, Santa Cruz) monoclonal antibody for 1 h, followed by washing and incubation with a horseradish peroxidase (HRP)-conjugated mouse secondary antibody. Plates were then washed again and the ABTS substrate (Bio-Rad) was added. All washing steps were carried out using PBS. Absorbances were read at 405 nm, and non-specific binding values were adjusted against BSA.
(§3) To determine whether GST-VCIP-RGD could interact with various integrins, a solid-phase ligand binding assay was performed.

α5β1 integrin = α5β1 integrin (Homo sapiens, UniProt P05556+P08648); test: Solid phase ligand binding assay (ELISA); conditions: immobilized integrin, GST-fusion ligand in solution
α5β1 integrin, sequence (P08648 42-894 limits assumed): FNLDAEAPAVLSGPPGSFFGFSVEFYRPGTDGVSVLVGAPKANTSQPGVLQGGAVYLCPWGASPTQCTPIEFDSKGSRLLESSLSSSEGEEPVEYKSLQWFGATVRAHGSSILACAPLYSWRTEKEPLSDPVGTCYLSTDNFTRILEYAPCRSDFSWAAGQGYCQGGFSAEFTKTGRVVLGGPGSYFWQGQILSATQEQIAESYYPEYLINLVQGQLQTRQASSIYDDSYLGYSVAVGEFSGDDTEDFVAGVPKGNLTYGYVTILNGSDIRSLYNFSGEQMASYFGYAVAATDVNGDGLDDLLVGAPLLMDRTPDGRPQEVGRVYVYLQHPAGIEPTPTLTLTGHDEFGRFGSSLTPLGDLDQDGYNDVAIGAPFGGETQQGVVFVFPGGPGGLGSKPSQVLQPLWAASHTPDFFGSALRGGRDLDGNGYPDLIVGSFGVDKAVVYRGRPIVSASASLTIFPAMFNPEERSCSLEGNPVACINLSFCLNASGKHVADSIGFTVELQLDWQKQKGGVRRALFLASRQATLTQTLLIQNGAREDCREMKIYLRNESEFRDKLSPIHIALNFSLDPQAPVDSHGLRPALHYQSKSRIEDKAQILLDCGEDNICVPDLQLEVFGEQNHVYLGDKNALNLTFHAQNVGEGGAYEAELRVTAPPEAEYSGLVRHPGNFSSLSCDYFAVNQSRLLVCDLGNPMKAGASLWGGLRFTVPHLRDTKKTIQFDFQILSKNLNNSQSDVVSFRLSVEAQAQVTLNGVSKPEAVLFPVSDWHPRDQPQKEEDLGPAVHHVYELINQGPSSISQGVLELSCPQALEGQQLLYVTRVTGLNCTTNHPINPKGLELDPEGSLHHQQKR
α5β1 integrin, sequence (P08648 895-1049 limits assumed): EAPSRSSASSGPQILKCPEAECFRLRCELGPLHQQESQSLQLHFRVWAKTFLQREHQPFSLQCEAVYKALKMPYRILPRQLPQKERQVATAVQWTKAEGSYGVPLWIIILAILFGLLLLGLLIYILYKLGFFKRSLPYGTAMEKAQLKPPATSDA
α5β1 integrin, sequence (P05556 21-798): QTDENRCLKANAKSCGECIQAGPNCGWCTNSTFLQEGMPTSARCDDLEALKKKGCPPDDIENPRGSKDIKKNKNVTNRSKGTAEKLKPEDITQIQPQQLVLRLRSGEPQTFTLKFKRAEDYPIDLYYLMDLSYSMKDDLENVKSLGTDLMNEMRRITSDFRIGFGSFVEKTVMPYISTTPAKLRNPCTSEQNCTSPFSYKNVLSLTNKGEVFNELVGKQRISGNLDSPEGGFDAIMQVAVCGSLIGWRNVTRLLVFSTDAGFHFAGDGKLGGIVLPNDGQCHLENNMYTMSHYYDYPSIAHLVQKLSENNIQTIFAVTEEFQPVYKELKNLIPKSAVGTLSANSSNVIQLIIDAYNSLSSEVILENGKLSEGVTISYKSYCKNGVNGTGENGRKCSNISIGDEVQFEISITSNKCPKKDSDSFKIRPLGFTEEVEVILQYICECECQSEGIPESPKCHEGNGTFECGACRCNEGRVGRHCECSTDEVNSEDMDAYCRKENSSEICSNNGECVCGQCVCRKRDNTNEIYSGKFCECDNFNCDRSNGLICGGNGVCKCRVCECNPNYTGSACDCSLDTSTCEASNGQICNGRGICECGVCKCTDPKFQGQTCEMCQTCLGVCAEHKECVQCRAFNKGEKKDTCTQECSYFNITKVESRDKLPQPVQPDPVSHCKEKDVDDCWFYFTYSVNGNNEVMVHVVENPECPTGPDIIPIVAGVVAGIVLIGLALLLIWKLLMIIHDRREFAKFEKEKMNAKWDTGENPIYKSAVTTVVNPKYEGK
Method: as §1, §2, §3

αvβ5 integrin = αvβ5 integrin (Homo sapiens, UniProt P06756+P18084); test: Solid phase ligand binding assay (ELISA); conditions: immobilized integrin, GST-fusion ligand in solution
αvβ5 integrin, sequence (P06756 31-889 limits assumed): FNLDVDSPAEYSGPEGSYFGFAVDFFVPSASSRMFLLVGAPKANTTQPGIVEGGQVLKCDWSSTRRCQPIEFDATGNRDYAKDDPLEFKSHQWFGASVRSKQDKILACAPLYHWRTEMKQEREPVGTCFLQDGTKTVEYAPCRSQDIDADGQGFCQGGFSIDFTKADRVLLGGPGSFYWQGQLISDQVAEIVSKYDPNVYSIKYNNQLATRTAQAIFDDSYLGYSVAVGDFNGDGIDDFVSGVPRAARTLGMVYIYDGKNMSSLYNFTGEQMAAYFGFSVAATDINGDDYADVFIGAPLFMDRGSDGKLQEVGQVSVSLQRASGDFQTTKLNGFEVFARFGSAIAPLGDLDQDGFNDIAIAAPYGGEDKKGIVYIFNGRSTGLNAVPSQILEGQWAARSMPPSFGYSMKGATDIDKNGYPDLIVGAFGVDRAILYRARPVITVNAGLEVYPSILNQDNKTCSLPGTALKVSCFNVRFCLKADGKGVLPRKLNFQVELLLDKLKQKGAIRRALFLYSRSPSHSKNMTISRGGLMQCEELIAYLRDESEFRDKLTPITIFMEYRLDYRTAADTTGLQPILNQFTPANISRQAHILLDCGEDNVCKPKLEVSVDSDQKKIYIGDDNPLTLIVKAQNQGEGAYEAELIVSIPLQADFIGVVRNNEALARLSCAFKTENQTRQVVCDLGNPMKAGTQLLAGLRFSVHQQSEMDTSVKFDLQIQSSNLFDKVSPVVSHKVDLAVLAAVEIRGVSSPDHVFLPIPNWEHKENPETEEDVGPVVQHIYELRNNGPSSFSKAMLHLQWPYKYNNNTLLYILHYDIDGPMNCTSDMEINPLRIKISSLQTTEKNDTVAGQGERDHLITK
αvβ5 integrin, sequence (P06756 891-1048 limits assumed): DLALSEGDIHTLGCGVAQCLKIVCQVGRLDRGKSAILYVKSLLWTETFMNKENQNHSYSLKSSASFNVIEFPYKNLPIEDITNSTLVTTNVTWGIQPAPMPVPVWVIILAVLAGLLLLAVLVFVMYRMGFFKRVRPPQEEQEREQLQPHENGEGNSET
αvβ5 integrin, sequence (P18084 24-799): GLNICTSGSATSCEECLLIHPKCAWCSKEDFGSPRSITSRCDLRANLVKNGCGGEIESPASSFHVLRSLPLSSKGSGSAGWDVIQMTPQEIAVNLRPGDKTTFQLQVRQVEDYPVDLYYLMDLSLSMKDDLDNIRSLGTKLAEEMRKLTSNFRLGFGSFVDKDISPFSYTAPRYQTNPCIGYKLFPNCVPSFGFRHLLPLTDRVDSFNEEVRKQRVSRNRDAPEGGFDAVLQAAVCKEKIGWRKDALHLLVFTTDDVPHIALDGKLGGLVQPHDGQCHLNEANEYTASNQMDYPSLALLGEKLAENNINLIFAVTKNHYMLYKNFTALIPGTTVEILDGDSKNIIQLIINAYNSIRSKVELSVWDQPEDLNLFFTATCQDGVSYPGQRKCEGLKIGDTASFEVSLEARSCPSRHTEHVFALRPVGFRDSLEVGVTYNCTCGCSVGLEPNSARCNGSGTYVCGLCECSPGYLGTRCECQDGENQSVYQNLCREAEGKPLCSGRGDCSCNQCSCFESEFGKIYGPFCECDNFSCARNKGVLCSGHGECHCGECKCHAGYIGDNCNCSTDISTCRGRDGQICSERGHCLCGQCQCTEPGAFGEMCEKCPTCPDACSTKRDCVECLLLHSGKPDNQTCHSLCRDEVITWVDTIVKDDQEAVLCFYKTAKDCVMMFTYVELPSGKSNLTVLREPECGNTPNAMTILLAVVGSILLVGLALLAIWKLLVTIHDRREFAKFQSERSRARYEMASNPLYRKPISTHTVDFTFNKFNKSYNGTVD
Method: as §1, §2, §3

α2β1 integrin = α2β1 integrin (Homo sapiens, UniProt P05556+P17301); test: Solid phase ligand binding assay (ELISA); conditions: immobilized integrin, GST-fusion ligand in solution
Method: as §1, §2, §3

endothelial cells = test: Adhesion of endothelial cells to wells coated with GST fusion proteins; assay type: cell-based, human; conditions: coating 1, 5, 10 nM; 45 min
Method: FIG. 10A: Affinity purified GST-fusion proteins were resolved on SDS±PAGE and stained with Coomassie Blue. FIG. 10B: Integrins were immobilized onto 96-well plates, and various GST-fusion proteins (ligands) were allowed to bind. Bound ligands were incubated with anti-GST antibodies, appropriate substrate added and the color intensity measured. OD values <0.05 were considered to be background binding. Data are expressed as mean±SD (n=4). FIG. 10C: Dose-dependent binding of αvβ3 integrin with recombinant GST-VCIP-RGD. FIGS. 10D-F: Representative photomicrographs of adhesion and spreading of endothelial cells replated onto dishes coated with either fibronectin (FIG. 9D), vitronectin (FIG. 9E) or GST-VCIP-RGD (FIG. 9F). […] Attached cells were stained, washed and absorbances of eluted dyes measured. […] Attached cells were stained, washed and absorbances of eluted dyes determined. […] Data are expressed as mean±S.D.; diamond, P<0.01; asterisk, P<0.001. […]
For adhesion blocking assays, endothelial cells were detached, washed with PBS and resuspended in M199 media containing 1 mM CaCl2 and 1 mM MgCl2 in the absence of serum or growth factors. […] Absorbances were measured at 540 nm.
Next, the capacity of VCIP-RGD to bind endothelial cell integrins was evaluated by determining the effect of GST-VCIP fusion proteins on cell adhesion and spreading.

αvβ3 and α5β1 integrins = test: GST pull-down from [35S]Cys/Met-labelled endothelial cell lysates; assay type: binding, human; conditions: 10 μg per 3 mg lysate
[1] = tested on: Fak, Cas, Shc and paxillin; test: Tyrosine phosphorylation of focal adhesion proteins in replated HUVECs; assay type: cell-based, human; conditions: HUVECs replated on coated dishes, 30 and 60 min
Method: Dishes were coated with either fibronectin (Fn, 10 μg/ml), vitronectin (Vn, 10 μg/ml) or affinity purified GST-VCIP-RGD or -RGE fusion proteins (10 and 20 nM). Endothelial cells were detached, washed and maintained in suspension (Sus) for 30 min, then allowed to re-attach for 30 or 60 min. Adherent cells were solubilized in RIPA buffer. Blots shown are representative of those obtained in at least three separate experiments. FIGS. 11A-E: Equal amounts of protein (˜1.0 mg) from clarified extracts were subjected to immunoprecipitation (IP) followed by immunoblotting using the indicated antibodies. FIG. 11F: Equal amounts of protein from total lysates (35 μg/lane) were subjected to immunoblotting with the anti-phospho-Erk½ antibody. FIG. 11G: The same membrane was stripped and re-probed with an anti-Erk½ antibody, showing that equivalent amounts of proteins used across the lanes.
Serum- and growth factor-starved HUVECs were allowed to attach and spread on dishes coated with optimal concentrations of fibronectin, vitronectin, GST-RGD-VCIP and GST-VCIP-RGE. Cells were harvested after 30 and 60 min at 37° C. Cells were then solubilized, clarified, pre-adsorbed, immunoprecipitated and subjected to immunoblotting with various antibodies as shown in FIG. 11. […] Cells that were replated onto GST-VCIP-RGE appeared rounded.

αvβ3 integrin, sequence (P06756 31-889 limits assumed): as the sequence (P06756 31-889 limits assumed) above
αvβ3 integrin, sequence (P06756 891-1048 limits assumed): as the sequence (P06756 891-1048 limits assumed) above
αvβ3 integrin, sequence (P05106 27-788): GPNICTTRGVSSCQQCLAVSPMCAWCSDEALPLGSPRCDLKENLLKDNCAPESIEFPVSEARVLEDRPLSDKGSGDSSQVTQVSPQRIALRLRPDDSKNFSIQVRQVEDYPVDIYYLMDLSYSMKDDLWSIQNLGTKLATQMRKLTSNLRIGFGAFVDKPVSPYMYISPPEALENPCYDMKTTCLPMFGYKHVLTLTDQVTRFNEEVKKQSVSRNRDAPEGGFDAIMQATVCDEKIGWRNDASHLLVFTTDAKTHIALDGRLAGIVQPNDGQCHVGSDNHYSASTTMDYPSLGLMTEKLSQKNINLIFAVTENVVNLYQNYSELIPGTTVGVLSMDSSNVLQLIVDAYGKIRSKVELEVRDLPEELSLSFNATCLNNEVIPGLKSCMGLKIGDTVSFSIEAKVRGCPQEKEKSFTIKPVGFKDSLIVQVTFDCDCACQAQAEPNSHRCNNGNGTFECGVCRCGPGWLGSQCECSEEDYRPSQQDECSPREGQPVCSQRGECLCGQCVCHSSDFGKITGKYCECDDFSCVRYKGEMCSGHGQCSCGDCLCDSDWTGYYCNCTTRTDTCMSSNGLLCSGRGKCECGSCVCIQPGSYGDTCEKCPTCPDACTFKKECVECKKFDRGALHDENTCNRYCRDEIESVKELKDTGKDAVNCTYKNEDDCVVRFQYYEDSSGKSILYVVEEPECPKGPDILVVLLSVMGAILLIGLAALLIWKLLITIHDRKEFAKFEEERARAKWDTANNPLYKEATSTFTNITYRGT

interaction with αvβ3 integrin (αvβ3 integrin; immobilized integrin, GST-fusion ligand in solution): interacted | interaction with α5β1 integrin (α5β1 integrin): interacted | interaction with αvβ5 integrin (αvβ5 integrin): did not | interaction with α2β1 integrin (α2β1 integrin): did not
Substance: GST-VCIP-RGD: recombinant GST fusion of 49 amino acid residues (145-194) of VCIP second extracellular loop, wild-type RGD (DIAKVSIGRLRPHFLSVCNPDFSQINCSEGYIQNYRCRGDDSKVQEARKS; cysteine pairing not given here; also: GST fusion)
dose-dependence of binding to αvβ3 integrin (αvβ3 integrin; FIG. 10C): bound to αvβ3 integrin in a dose-dependent manner | adhesion of endothelial cells to coated wells (endothelial cells): comparable to that observed in wells coated with vitronectin and fibronectin substrates | integrins present in pull-down complex (αvβ3 and α5β1 integrins): contained anti-αvβ3 and -α5β1 immunoreactivities | tyrosine phosphorylation of Fak, Cas, Shc and paxillin [1]: comparable to those induced by fibronectin and vitronectin | tyrosine phosphorylation of Fak, Cas, Shc and paxillin ([1]; listed as VCIP-RGD): induced tyrosine phosphorylation of Fak, Cas, Shc and paxillin at both 30 and 60 min

— patent publication US20050002904A1, “Uses of vascular endothelial growth factor and type I collagen inducible protein (VCIP)” (priority 2003, published 2005)
